Laboratory results as given in US20240067690A1.
Where two headings read alike, the source gives them in different places.

Assays:
Assay in all cases: cell-based or functional assay
[1] = target: high affinity (IL2Ra/b/g) IL2 receptor on YT/STAT5-Luc/hIL2Ra reporter cells (human; human (human T/NK cell leukemia YT cell line)) (UniProt P01589)
[2] = target: low affinity (IL2Rb/g) IL2 receptor on YT/STAT5-Luc/IL2Ra KO reporter cells (human (human T/NK cell leukemia YT cell line)) (UniProt P14784)
[3] = target: high affinity (IL2Ra/b/g) IL2 receptor on YT/STAT5-Luc/hIL2Ra reporter cells (human; human (human T/NK cell leukemia YT cell line)) (UniProt P01589); remark: listed apart in the source
[4] = target: low affinity (IL2Rb/g) IL2 receptor on YT/STAT5-Luc/IL2Ra KO reporter cells (human (human T/NK cell leukemia YT cell line)) (UniProt P14784); remark: listed apart in the source

Chain of UniProt P14784 (P14784 27-551, chain 1 of 2): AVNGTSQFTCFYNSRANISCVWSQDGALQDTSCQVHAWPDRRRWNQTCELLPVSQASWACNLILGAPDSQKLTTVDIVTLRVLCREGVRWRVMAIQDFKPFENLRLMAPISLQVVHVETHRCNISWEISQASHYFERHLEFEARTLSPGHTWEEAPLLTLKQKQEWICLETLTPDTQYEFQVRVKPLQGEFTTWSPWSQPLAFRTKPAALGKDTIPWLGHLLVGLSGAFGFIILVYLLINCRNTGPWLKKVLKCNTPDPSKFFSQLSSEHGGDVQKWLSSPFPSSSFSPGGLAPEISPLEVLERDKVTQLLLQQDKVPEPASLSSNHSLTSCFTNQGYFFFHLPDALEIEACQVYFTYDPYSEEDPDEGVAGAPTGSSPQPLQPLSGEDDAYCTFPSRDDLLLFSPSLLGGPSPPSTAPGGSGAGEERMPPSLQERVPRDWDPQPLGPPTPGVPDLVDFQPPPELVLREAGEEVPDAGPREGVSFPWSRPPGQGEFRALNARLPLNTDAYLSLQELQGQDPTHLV
Chain of UniProt P14784 (P31785 23-369, chain 2 of 2, further chain): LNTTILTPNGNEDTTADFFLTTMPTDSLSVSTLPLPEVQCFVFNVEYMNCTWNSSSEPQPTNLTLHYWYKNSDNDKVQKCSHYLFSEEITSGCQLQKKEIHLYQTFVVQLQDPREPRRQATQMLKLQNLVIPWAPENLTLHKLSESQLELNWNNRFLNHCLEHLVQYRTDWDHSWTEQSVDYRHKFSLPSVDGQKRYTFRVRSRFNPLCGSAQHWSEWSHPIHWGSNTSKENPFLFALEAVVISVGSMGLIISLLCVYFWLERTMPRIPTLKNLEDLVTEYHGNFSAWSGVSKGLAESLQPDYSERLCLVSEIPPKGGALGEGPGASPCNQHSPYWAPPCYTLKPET
Chain of UniProt P01589 (P01589 22-272, chain 1 of 3): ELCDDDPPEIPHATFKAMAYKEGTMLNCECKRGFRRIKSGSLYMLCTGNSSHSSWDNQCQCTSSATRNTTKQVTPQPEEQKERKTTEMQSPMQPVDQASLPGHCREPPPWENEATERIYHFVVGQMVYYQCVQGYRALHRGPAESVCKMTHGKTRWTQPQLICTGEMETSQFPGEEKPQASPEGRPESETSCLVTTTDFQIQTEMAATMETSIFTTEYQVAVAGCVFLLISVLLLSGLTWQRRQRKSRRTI
Chain of UniProt P01589 (P14784 27-551, chain 2 of 3, further chain): as the sequence (P14784 27-551, chain 1 of 2) above
Chain of UniProt P01589 (P31785 23-369, chain 3 of 3, further chain): as the sequence (P31785 23-369, chain 2 of 2, further chain) above

Molecule: IL2(E68C)-mmh (REGN7184), dimeric human IL-2 (E68C) with a C-terminal myc-myc-hexahistidine (mmh) tag (ligand)
- EC50, STAT5-luciferase reporter assay, YT/Stat5-Luc/hIL2Ra cells (M (unit not given)) [1]: 5.63e-10
- fold less potency than IL2-mmh (REGN7183), STAT5-luciferase reporter assay, YT/STAT5-Luc/hIL2Ra cells [1]: 34 fold
- EC50, STAT5-luciferase reporter assay, YT/Stat5-Luc/IL2Ra KO cells [2]: 0.847 nM

Molecule: IL2-Fc (REGN8189) (Fc fusion)
- EC50, STAT5-luciferase reporter assay, YT/Stat5-Luc/IL2Ra KO cells [2]: 0.542 nM

Molecule: IL2-Fc (REGN8189) (Fc fusion; in M (unit assumed))
- EC50, STAT5-luciferase reporter assay, YT/Stat5-Luc/hIL2Ra cells (M (unit not given)) [1]: 1.69e-11

Molecule: IL2-mmh (REGN7183), monomeric human IL-2 with a C-terminal myc-myc-hexahistidine (mmh) tag (ligand)
- EC50, STAT5-luciferase reporter assay, YT/Stat5-Luc/IL2Ra KO cells [2]: 0.622 nM

Molecule: IL2-mmh (REGN7183), monomeric human IL-2 with a C-terminal myc-myc-hexahistidine (mmh) tag (ligand; in M (unit assumed))
- EC50, STAT5-luciferase reporter assay, YT/Stat5-Luc/hIL2Ra cells (M (unit not given)) [1]: 1.65e-11

B1: IL2(3m)-Fc (REGN8190) (Fc fusion)
chain: APTSSSTKKTQLQLEHLLLDLQMILNGINNYKNPKLTRMLTAKFAMPKKATELKHLQCLEEELKPLEEVLNGAQSKNFHLRPRDLISNINVIVLELKGSETTFMCEYADETATIVEFLNRWITFCQSIISTLTGGGGSESKYGPPCPPCPAPPVAGPSVFLFPPKPKDTLMISRTPEVTCVVVDVSQEDPEVQFNWYVDGVEVHNAKTKPREEQFNSTYRVVSVLTVLHQDWLNGKEYKCKVSNKGLPSSIEKTISKAKGQPREPQVYTLPPSQEEMTKNQVSLTCLVKGFYPSDIAVEWESNGQPENNYKTTPPVLDSDGSFFLYSRLTVDKSRWQEGNVFSCSVMHEALHNHYTQKSLSLSLGK
- EC50, STAT5-luciferase reporter assay, YT/Stat5-Luc/hIL2Ra cells (M (unit not given)) [3]: 5.17e-11
- fold less potency than IL2-Fc (REGN8189), STAT5-luciferase reporter assay, YT/STAT5-Luc/hIL2Ra cells [3]: 3 fold
- EC50, STAT5-luciferase reporter assay, YT/Stat5-Luc/IL2Ra KO cells [4]: 0.628 nM
